The supplement of paper PMC11246515
± gives the standard deviation of the averaged measurements.

Experiment: total protein half-life in vivo (active degradation + dilution); higher = more stable protein
[1] = E. coli NCM3722 delta-clpP delta-lon delta-hslV, growth: N-lim chemostat, doubling time 6 h
[2] = E. coli NCM3722 delta-clpP, growth: N-lim chemostat, doubling time 6 h
[3] = E. coli NCM3722 delta-hslV, growth: N-lim chemostat, doubling time 6 h
[4] = E. coli NCM3722 delta-lon, growth: N-lim chemostat, doubling time 6 h
[5] = E. coli NCM3722 delta-smpB, growth: N-lim chemostat, doubling time 6 h
[6] = wild type E. coli NCM3722, growth: C-lim chemostat, doubling time 3 h
[7] = wild type E. coli NCM3722, growth: C-lim chemostat, doubling time 6 h
[8] = wild type E. coli NCM3722, growth: C-lim chemostat, doubling time 12 h
[9] = wild type E. coli NCM3722, growth: N-lim chemostat, doubling time 6 h
[10] = wild type E. coli NCM3722, growth: N-lim chemostat, doubling time 12 h
[11] = wild type E. coli NCM3722, growth: P-lim chemostat, doubling time 6 h
[12] = wild type E. coli NCM3722, growth: P-lim chemostat, doubling time 12 h

Sequence: MPKRTDIKSILILGAGPIVIGQACEFDYSGAQACKALREEGYRVILVNSNPATIMTDPEMADATYIEPIHWEVVRKIIEKERPDAVLPTMGGQTALNCALELERQGVLEEFGVTMIGATADAIDKAEDRRRFDVAMKKIGLETARSGIAHTMEEALAVAADVGFPCIIRPSFTMGGSGGGIAYNREEFEEICARGLDLSPTKELLIDESLIGWKEYEMEVVRDKNDNCIIVCSIENFDAMGIHTGDSITVAPAQTLTDKEYQIMRNASMAVLREIGVETGGSNVQFAVNPKNGRLIVIEMNPRVSRSSALASKATGFPIAKVAAKLAVGYTLDELMNDITGGRTPASFEPSIDYVVTKIPRFNFEKFAGANDRLTTQMKSVGEVMAIGRTQQESLQKALRGLEVGATGFDPKVSLDDPEALTKIRRELKDAGADRIWYIADAFRAGLSVDGVFNLTNIDRWFLVQIEELVRLEEKVAEVGITGLNADFLRQLKRKGFADARLAKLAGVREAEIRKLRDQYDLHPVYKRVDTCAAEFATDTAYMYSTYEEECEANPSTDREKIMVLGGGPNRIGQGIEFDYCCVHASLALREDGYETIMVNCNPETVSTDYDTSDRLYFEPVTLEDVLEIVRIEKPKGVIVQYGGQTPLKLARALEAAGVPVIGTSPDAIDRAEDRERFQHAVERLKLKQPANATVTAIEMAVEKAKEIGYPLVVRPSYVLGGRAMEIVYDEADLRRYFQTAVSVSNDAPVLLDHFLDDAVEVDVDAICDGEMVLIGGIMEHIEQAGVHSGDSACSLPAYTLSQEIQDVMRQQVQKLAFELQVRGLMNVQFAVKNNEVYLIEVNPRAARTVPFVSKATGVPLAKVAARVMAGKSLAEQGVTKEVIPPYYSVKEVVLPFNKFPGVDPLLGPEMRSTGEVMGVGRTFAEAFAKAQLGSNSTMKKHGRALLSVREGDKERVVDLAAKLLKQGFELDATHGTAIVLGEAGINPRLVNKVHEGRPHIQDRIKNGEYTYIINTTSGRRAIEDSRVIRRSALQYKVHYDTTLNGGFATAMALNADATEKVISVQEMHAQIK
- total protein half-life in vivo [1]: 5.02 ± 0.092 h
- total protein half-life in vivo [2]: 4.45 ± 0.4 h
- total protein half-life in vivo [3]: 4.581 ± 0.016 h
- total protein half-life in vivo [4]: 5 ± 0.33 h
- total protein half-life in vivo [5]: 4.81 ± 0.32 h
- total protein half-life in vivo [6]: 3.11 ± 0.25 h
- total protein half-life in vivo [7]: 5.75 ± 0.28 h
- total protein half-life in vivo [8]: 10.6 ± 0.13 h
- total protein half-life in vivo [9]: 4.65 ± 0.3 h
- total protein half-life in vivo [10]: 8.22 ± 0.41 h
- total protein half-life in vivo [11]: 6.2 ± 0.28 h
- total protein half-life in vivo [12]: 12.6 ± 0.28 h

Sequence: MKNWKTSAESILTTGPVVPVIVVKKLEHAVPMAKALVAGGVRVLEVTLRTECAVDAIRAIAKEVPEAIVGAGTVLNPQQLAEVTEAGAQFAISPGLTEPLLKAATEGTIPLIPGISTVSELMLGMDYGLKEFKFFPAEANGGVKALQAIAGPFSQVRFCPTGGISPANYRDYLALKSVLCIGGSWLVPADALEAGDYDRITKLAREAVEGAKL [P0A955]
- total protein half-life in vivo [1]: 4.94 ± 0.33 h
- total protein half-life in vivo [2]: 4.33 ± 0.52 h
- total protein half-life in vivo [3]: 4.66 ± 0.37 h
- total protein half-life in vivo [4]: 4.92 ± 0.53 h
- total protein half-life in vivo [5]: 4.3 ± 0.16 h
- total protein half-life in vivo [6]: 2.99 ± 0.52 h
- total protein half-life in vivo [7]: 6.17 ± 0.77 h
- total protein half-life in vivo [8]: 9.18 ± 0.99 h
- total protein half-life in vivo [9]: 4.63 ± 0.16 h
- total protein half-life in vivo [10]: 7.2 ± 0.82 h
- total protein half-life in vivo [11]: 5.39 ± 0.082 h
- total protein half-life in vivo [12]: 12.2 ± 0.37 h

Sequence: MTMFQYYKRSRHFVFSAFIAFVFVLLCQNTAFARASSNGDLPTKADLQAQLDSLNKQKDLSAQDKLVQQDLTDTLATLDKIDRIKEETVQLRQKVAEAPEKMRQATAALTALSDVDNDEETRKILSTLSLRQLETRVAQALDDLQNAQNDLASYNSQLVSLQTQPERVQNAMYNASQQLQQIRSRLDGTDVGETALRPSQKVLMQAQQALLNAEIDQQRKSLEGNTVLQDTLQKQRDYVTANSARLEHQLQLLQEAVNSKRLTLTEKTAQEAVSPDEAARIQANPLVKQELEINQQLSQRLITATENGNQLMQQNIKVKNWLERALQSERNIKEQIAVLKGSLLLSRILYQQQQTLPSADELENMTNRIADLRLEQFEVNQQRDALFQSDAFVNKLEEGHTNEVNSEVHDALLQVVDMRRELLDQLNKQLGNQLMMAINLQINQQQLMSVSKNLKSILTQQIFWVNSNRPMDWDWIKAFPQSLKDEFKSMKITVNWQKAWPAVFIAFLAGLPLLLIAGLIHWRLGWLKAYQQKLASAVGSLRNDSQLNTPKAILIDLIRALPVCLIILAVGLILLTMQLNISELLWSFSKKLAIFWLVFGLCWKVLEKNGVAVRHFGMPEQQTSHWRRQIVRISLALLPIHFWSVVAELSPLHLMDDVLGQAMIFFNLLLIAFLVWPMCRESWRDKESHTMRLVTITVLSIIPIALMVLTATGYFYTTLRLAGRWIETVYLVIIWNLLYQTVLRGLSVAARRIAWRRALARRQNLVKEGAEGAEPPEEPTIALEQVNQQTLRITMLLMFALFGVMFWAIWSDLITVFSYLDSITLWHYNGTEAGAAVVKNVTMGSLLFAIIASMVAWALIRNLPGLLEVLVLSRLNMRQGASYAITTILNYIIIAVGAMTVFGSLGVSWDKLQWLAAALSVGLGFGLQEIFGNFVSGLIILFERPVRIGDTVTIGSFSGTVSKIRIRATTITDFDRKEVIIPNKAFVTERLINWSLTDTTTRLVIRLGVAYGSDLEKVRKVLLKAATEHPRVMHEPMPEVFFTAFGASTLDHELRLYVRELRDRSRTVDELNRTIDQLCRENDINIAFNQLEVHLHNEKGDEVTEVKRDYKGDDPTPAVG
- total protein half-life in vivo [1]: 5.8 ± 0.075 h
- total protein half-life in vivo [2]: 6.4 ± 0.7 h
- total protein half-life in vivo [3]: 5.72 ± 0.36 h
- total protein half-life in vivo [4]: 6.99 ± 1.1 h
- total protein half-life in vivo [5]: 5.79 ± 0.11 h
- total protein half-life in vivo [6]: 3.06 ± 0.094 h
- total protein half-life in vivo [7]: 5.56 ± 0.15 h
- total protein half-life in vivo [8]: 11.1 ± 2.1 h
- total protein half-life in vivo [9]: 6.73 ± 0.33 h
- total protein half-life in vivo [10]: 13.1 ± 1.6 h
- total protein half-life in vivo [11]: 5.94 ± 0.43 h
- total protein half-life in vivo [12]: 11.4 ± 0.85 h
